Data from patent US20260103529A1, “Amino Acid Sequences Directed Against the Melanocortin 4 Receptor and Polypeptides Comprising the Same for the Treatment of MC4R-Related Diseases and Disorders” (Confo Therapeutics N.V., priority 2022, published 2026).
Read-outs that look alike come from different tables or passages of the source.

Columns and labels:
[1] = test system: DIO mice; assay: Diet-induced obese (DIO) mouse study, acute setting, ICV administration; format: in vivo
Method: The mouse studies described in Examples 2 and 3 were performed at a fully AAALAC accredited unit (Gubra, Denmark), and all animal experiments were conducted in accordance with the CRO's bioethical guidelines, which are fully compliant to internationally accepted principles for the care and use of laboratory animals. All experiments were licensed by the Danish Animal Experimentation Council. This animal model is based on male C57BI/6J mice that are fed for a minimum of 18 weeks a 60% high fat diet that result in rapid weight gain. The mice were obtained from commercial vendors in Europe and United States transferred to Gubra's animal unit. The animal room environment is controlled (targeted ranges: temperature 21±2° C.; relative humidity 50±10%). The animals are maintained on a reversed 12 h light/dark cycle and have access to plenty of bedding material, shelters and chewing sticks. Animals were dosed just before lights went off.
Male DIO mice (5 weeks of age at time of arrival and HF diet induction, 46 weeks of age at study start, n=50) had ad libitum access to 60% high fat diet (D12492, Research diets) and water. The DIO mice were acclimatized to an automated real-time food intake monitoring system (MoNI system) individually housed in the system for 14 days prior to study start. The animals went through ICV cannulation on study day −6/−5 and on study day−1, animals were randomized into 5 treatment groups (n=8 per group) based on body weight (PM, day−2).

[2] = test system: moderately pigmented normal human epidermal melanocytes (NHEM-MP); assay: In vitro pigmentation assay, melanin synthesis, 2D NHEM moderately pigmented; format: cell-based; details: 10 days
Method: Highly and moderately pigmented melanocytes were seeded in 24-well plates and cultured in culture medium for 24 hours. The medium was then replaced by culture medium containing or not (control) the test compounds or the reference compounds (L-tyrosine at 1 mM, IBMX at 100 and 200 μM and NDP-MSH at 10 μM). The cells were then incubated for 10 days with treatment renewal at day 3 and day 7. All experimental conditions were performed in n=3. At the end of the incubation time, the culture supernatants were removed, and melanin was extracted by cell lysis using a 0.5 N NaOH solution. The optical density (OD) of each experimental point was measured at 405 nm and melanin quantity was determined according to melanin standard curve (standard curve ranging from 0.39 to 100 μg/ml). The results were expressed in μg/ml of melanin. […] NHEM-HP response to L-tyrosine and NDP-MSH was stronger than in NHEM-MP while IBMX induced a stronger response in the NHEM-MP.

[3] = target: T1, human wild type MC1R (Homo sapiens, UniProt Q01726); assay: cAMP GloSensor assay, MC1R; format: cell-based
T1 construct: expressed in transfected cells; host or cells: HEK293 / HEK 293T, pcDNA3.1(+)

[4] = target: T2, human MC5R (Homo sapiens, UniProt P33032); assay: Flow cytometry binding to Flag-tagged receptor in HEK293T cells, MC5R; details: 1 μM
T2 construct: Flag; expressed in transfected cells; host or cells: HEK293T
Method: (§1) To confirm MC4R activation, dose-dependent nanobody-induced cAMP signaling was assessed (Lance Ultra HTRF). […] Binding of pN162 to the human melanocortin receptor subtypes MC1R, MC2R, MC3R, MC4R or MC5R transiently expressed as Flag-tagged receptors in HEK293T cells was assessed by flow cytometry.

[5] = target: T3, human wild type MC3R (Homo sapiens, UniProt P41968); assay: cAMP GloSensor assay, MC3R; format: cell-based
T3 construct: expressed in transfected cells; host or cells: HEK293 / HEK 293T, pcDNA3.1(+)

[6] = target: T4, human MC3R (Homo sapiens, UniProt P41968); assay: Flow cytometry binding to Flag-tagged receptor in HEK293T cells, MC3R; details: 1 μM
T4 construct: Flag; expressed in transfected cells; host or cells: HEK293T
Method: as §1

[7] = target: T5, human MC2R (Homo sapiens, UniProt Q01718); assay: Flow cytometry binding to Flag-tagged receptor in HEK293T cells, MC2R; details: 1 μM
T5 construct: Flag; expressed in transfected cells; host or cells: HEK293T
Method: as §1

[8] = target: T6, WT human MC4R (Homo sapiens, UniProt P32245); assay: Gs ConfoSensor recruitment assay; format: cell-based; details: for EC50: WT human MC4R-expressing HEK293T cells
T6 construct: Flag (N); expressed in transfected cells; host or cells: HEK293T

[9] = test system: MC4R; assay: Radioligand displacement, CHO stable cell line; format: binding; details: mean ± spread, n = 2
[10] = target: human wild type MC4R (Homo sapiens, UniProt P32245); assay: cAMP GloSensor assay, MC4R; format: cell-based; design: Flag; expressed in transfected cells; host or cells: HEK293T
Method: as §1
HEK 293T cells were routinely maintained at 37° C., 5% CO2, under humidified atmosphere in Dulbecco's modified Eagle's medium (DMEM, Gibco, cat. no. 41966-029) supplemented with 10% heat-inactivated fetal bovine serum. In preparation of the experiments, cells were plated on poly-L-lysine coated white 96-well plates (Costar: 3917) at the density of 3,00E+04 cells/well. At the moment of seeding, cells were transfected with 25 ng of human MC4R in pcDNA3.1 (+) and 50 ng of p22F GLoSensor plasmid (Promega Corporation), empty pcDNA3.1 (+) vector was added to obtain 100 ng of total DNA, using XtremeGene HP (Roche). To evaluate cross-reactivity of different VHHs for other melanocortin receptors, cells were additionally transfected with 50 ng of DNA encoding one of the three melanocortin receptors MC1R/MC3R/MC5R in pcDNA3.1 (+) and 50 ng of p22F GLoSensor plasmid (Promega Corporation), using XtremeGene HP (Roche). After 24 h post transfection, growing medium was gently removed from the cells and replaced with 90 μl/well of Assay medium (OptiMEM media containing 10% FBS HI with 2% GloSensor reagent (Promega)) in which cells were incubated for 2 h at room temperature in the dark. Next, background luminescence level was recorded using the En Vision 2104 Multilabel Plate Reader (Perkin Elmer). Samples (purified VHH produced in E. coli and/or mammalian cells with or without FC fusion) or benchmark compounds were prepared at 10× working concentration in OptiMEM containing 10% heat-inactivated Fetal Bovine Serum (FBS). After addition of 10 μl of samples luminescence was recorded in a kinetic mode using the En Vision 2104 Multilabel Plate Reader (Perkin Elmer). Data were analyzed using GraphPad Prism 8 by applying nonlinear regression (curve fit).

[11] = pN162 0.5 and 5 nmol ICV on day 0 and day 2, study day 4
[12] = GloSensor head-to-head receptor subtype comparison

T6 sequence (P32245 whole entry): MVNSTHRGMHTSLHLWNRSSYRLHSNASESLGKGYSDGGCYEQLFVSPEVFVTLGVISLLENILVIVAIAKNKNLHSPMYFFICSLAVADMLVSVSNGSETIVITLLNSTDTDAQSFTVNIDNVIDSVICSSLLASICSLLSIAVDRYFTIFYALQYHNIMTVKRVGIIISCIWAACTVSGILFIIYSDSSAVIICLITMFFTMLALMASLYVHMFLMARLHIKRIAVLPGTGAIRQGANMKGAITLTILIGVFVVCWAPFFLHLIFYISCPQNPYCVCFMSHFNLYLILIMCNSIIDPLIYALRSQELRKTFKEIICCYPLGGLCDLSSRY
human wild type MC4R, sequence (P32245 whole entry): as above
T3 sequence (P41968 whole entry): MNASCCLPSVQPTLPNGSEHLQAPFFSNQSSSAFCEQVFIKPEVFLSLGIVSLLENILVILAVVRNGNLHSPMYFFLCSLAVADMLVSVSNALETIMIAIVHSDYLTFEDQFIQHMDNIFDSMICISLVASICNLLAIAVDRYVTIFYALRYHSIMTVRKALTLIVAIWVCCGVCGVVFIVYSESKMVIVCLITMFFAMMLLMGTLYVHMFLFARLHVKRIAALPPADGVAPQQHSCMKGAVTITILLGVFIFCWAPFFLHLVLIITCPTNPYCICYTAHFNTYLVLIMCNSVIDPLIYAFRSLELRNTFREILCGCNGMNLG
T1 sequence (Q01726 whole entry): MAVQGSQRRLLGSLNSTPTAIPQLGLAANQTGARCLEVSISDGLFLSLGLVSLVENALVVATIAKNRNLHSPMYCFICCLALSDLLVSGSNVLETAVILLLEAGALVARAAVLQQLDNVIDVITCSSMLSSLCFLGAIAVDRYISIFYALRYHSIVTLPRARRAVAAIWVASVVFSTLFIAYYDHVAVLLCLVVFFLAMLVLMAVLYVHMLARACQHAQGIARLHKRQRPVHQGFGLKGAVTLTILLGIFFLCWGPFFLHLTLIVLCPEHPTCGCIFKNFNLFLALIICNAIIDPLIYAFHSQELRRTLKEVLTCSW
T4 sequence (P41968 whole entry): as the sequence (P41968 whole entry) above
T5 sequence (Q01718 whole entry): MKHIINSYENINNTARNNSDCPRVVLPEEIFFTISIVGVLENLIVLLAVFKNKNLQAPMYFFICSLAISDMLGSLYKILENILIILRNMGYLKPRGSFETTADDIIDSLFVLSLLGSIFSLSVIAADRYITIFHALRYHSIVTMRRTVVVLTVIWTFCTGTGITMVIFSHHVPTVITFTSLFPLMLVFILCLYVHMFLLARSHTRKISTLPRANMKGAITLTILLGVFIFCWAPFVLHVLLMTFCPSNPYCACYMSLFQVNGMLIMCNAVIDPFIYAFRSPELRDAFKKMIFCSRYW
T2 sequence (P33032 whole entry): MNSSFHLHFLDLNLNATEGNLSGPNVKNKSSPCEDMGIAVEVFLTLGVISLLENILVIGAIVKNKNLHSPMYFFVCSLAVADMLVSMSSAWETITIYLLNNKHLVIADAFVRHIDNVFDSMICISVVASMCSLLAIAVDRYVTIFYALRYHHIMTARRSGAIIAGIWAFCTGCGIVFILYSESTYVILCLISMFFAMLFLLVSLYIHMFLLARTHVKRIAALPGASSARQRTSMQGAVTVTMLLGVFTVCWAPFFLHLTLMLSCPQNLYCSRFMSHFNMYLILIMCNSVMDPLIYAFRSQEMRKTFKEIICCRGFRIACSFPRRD

B1: pN162: agonistic anti-MC4R VHH, SEQ ID NO: 184; parental clone for potency maturation (protein)
VHH: QVQLVESGGGLVQPGGSLRLSCAASGSAFSLNVMGWYRQTPGNQRALVAEITKDGSTNYADSAKGRFTISRDNAKNTVHLQMDSLKPEDTAVYYCKARTGRIVRPLDYWGQGTQVTVSS
modifications: pN0162
cumulative food intake after first dose ([1]; pN162 0.5 and 5 nmol ICV): reduced by pN162 in a dose-dependent manner | cumulative food intake compared to vehicle [1, 11]: reduced | relative body weight compared to vehicle [1, 11]: reduced | modulation of melanin synthesis [2]: did not modulate | detectable cAMP signaling, MC1R [3, 12]: only induced detectable signaling on MC4R | cAMP potency (EC50) MC1R ([3]; GloSensor, average EC50, human MC1R): No effect | binding to MC5R by flow cytometry [4]: No binding could be detected | detectable cAMP signaling, MC3R [5, 12]: only induced detectable signaling on MC4R | cAMP potency (EC50) MC3R ([5]; GloSensor, average EC50, human MC3R): No effect | binding to MC3R by flow cytometry [6]: No binding could be detected | binding to MC2R by flow cytometry [7]: No binding could be detected | Gs recruitment ([8]; Flag-tagged WT human MC4R HEK293T cells): dose-dependently recruits | EC50 ([8]; No Ca^2+, read-out: Gs ConfoSensor No Ca^2+ (EC50)): 8.5 ± 2.1 nM | dependence of Gs recruitment on Ca2+ ions ([8]; absence vs presence of 1 mM Ca2+): independent of Ca^2+ ions | EC50 ([8]; read-out: Gs ConfoSensor 1 mM Ca^2+ (EC50), 1 mM Ca^2+): 12 ± 5 nM | Radioligand displacement [9]: 6.48 ± 1.96 nM | reduced potency in cAMP signaling via human MC4R compared to setmelanotide ([10]; GloSensor): 6.7 fold | detectable cAMP signaling, MC4R [10, 12]: only induced detectable signaling on MC4R | potency ranking among agonistic nanobodies ([10]; GloSensor, Flag-tagged human wild type MC4R HEK293T cells): most potent full agonist nanobody | EC50 ([10]; Promega GloSensor, HEK293 transiently transfected, real-time, read-out: cAMP assay (GloSensor)): 8.4 ± 3.29 nM | EC50 ([10]; human wild type MC4R in HEK293T cells, read-out: average EC50, real-time cAMP monitoring (GloSensor), MC4R): 13.2 ± 5.6 nM
